Key:
[1] = target: RBDSARS-CoV-2 (SARS-CoV-2 S protein residues 319-539, C-terminal His-tag) (SARS-CoV-2, UniProt P0DTC2 319-539); test: ELISA
[2] = target: RBDSARS-CoV (SARS-CoV S protein residues 318-510, C-terminal His-tag) (SARS-CoV, UniProt P59594 318-510); test: ELISA

Binder	IC50 [1]	IC50 [2]
5p-64 (VHH, class V psNb) VHH: QVQLVESGGGLVQAGGSLRLSCAASGRTFSTYAMAWFRQAPGKEREFVAGVARSADTTYYGDSVKGRFTISRDNAKNEVNLQMSSLKPEDTAVYYCAARSVIQYGIVPGNDFHYEYWGQGTQVTVSS	< 10 nM	< 10 nM
5p-63 (VHH) VHH: DVQLVESGGGLVQAGGSLRLSCAASGRSFSTYAMGWFRQAPGKEREFVAGVARSASTTYYTDSVKGRFTISRDNAKNEVYLQMNSLKPEDTAVYYCAARSVIQDTVVPGNPFHYEYWGQGTQVTVSS	< 10 nM	< 10 nM
5p-175 (VHH) VHH: QVQLVESGGGLVQAGGSLRLSCAASGRTFSTYAMAWFRQAPGKEREFVAGVARSADTTYYGDSVKGRFTISRDNAKNEVNLQMSSLKPEDTAVYYCAARSVIQYSIVPGNDFHYEYWGQGTQVTVSS	< 10 nM	< 10 nM
5p-3 (VHH) VHH: QVQLVESGGGLVQAGDSLRLSCAASGRTISTFPMGWFRQAPGKEREFVATITRTGFGTYYSDSVKGRFTISRDNAKNTVFLQMNSLKPEDTALYYCAAAKTTDWVTRAPREMHEYAYWGQGTQVTVSS	< 10 nM	10 to 100 nM
5p-4 (VHH) VHH: QVQLVESGGGLVQAGASLRLSCAASGRTFTNSHMGWFRQAPGKERDFVAVISRSGGSTLYADSVKGRFTISRDNAKNTVYLQMNTMKPEDTAVYYCAGARTAGLTSNPSLYDYWGQGTQVTVSS	< 10 nM	10 to 100 nM
5p-98 (VHH) VHH: QVQLVESGGGLVQPGGSLRLSCAASGRTLSNYAMGWFRQAPGKEREFVAVIRQRTGMRSYTYYADSVEGRFTISGDGAKMTVSLQMNSLKPEDTAVYYCAIDLIDDYKSTYYYSTQPSSYDYWGQGTQVTVSS	< 10 nM	10 to 100 nM
5p-47 (VHH) VHH: DVQLVESGGGLVQAGGSLRLSCAASGRTFTFNRFAMGWFRQAPEKEREFVAAISRTGRSTEYADSVKGRFAISRDNTKNTVYLQMNSLKPEDTAVYYCAALEAPLLHLIATQRRQYEYWGQGTQVTVSS	< 10 nM	1000 to 8000 nM
5p-13 (VHH) VHH: HVQLVESGGGLVQPGGSLRLSCVASGLTFSRYTMAWFRQAPGKDRIFVAAVSKPGGSTYYADSVKGRFTISRDNAKNTVYLQMNSLKPDDTAVYSCAADLTVLLTANPAHYNYWGHGTQVTVSS	< 10 nM	< 10 nM
5p-40 (VHH) VHH: DVQLVESGGGLVQPGDSLRLSCVASGLTFSRYTMAWFRQAPGKDRIFVAAVSKPGGSTYYADSVKGRFTISRDNAQNTVYLQMNSLKPDDTAVYSCAAGLTVLLTANPAHYNYWGQGTQVTVSS	< 10 nM	< 10 nM
5p-14 (VHH) VHH: QVQLVESGGGLVQPGGSLRLSCVASGLTFSRYTMAWFRQAPGKERVFVAAVSKPGGSTYYADSVKGRFTISRDNAKNTVYLQTSRLNPDDTAVYSCAADLTVLLTANPGHYKYWGQGTQVTVSS	< 10 nM	< 10 nM
5p-93 (VHH, class III psNb) VHH: QVQLVESGGGLVQPGGSLRLSCAASGFTFNRYAMSWVRQAPGKGREWVSGIYSDGSETYYTESVKGRFTISRDNAKNMLYLQMNSLKPEDTALYYCAKDENAHEDYFNSGFDRKYDYWGQGTQVTVSS	< 10 nM	> 8000 nM
5p-58 (VHH) VHH: HVQLVESGGGLVQAGESLRLLCVASGSIDSINAMGWFRQAPGKQRELVASISNMHTTMYAESVKGRFTISRDNFKNTADLQMNSLKPEDTAIYFCNLRQGCSYNGCDEYWGQGTQVTVSS	< 10 nM	1000 to 8000 nM
5p-165 (VHH) VHH: HVQLVESGGGLVQAGESLRLSCVASGSISSINAMGWFRQAPGKQRELVASISNIHTTLYAESVKGRFTISRDTAKNTADLQMDSLKPEDTAIYYCNLRQDCSYNGCDEYWGQGTQVTVSS	< 10 nM	10 to 100 nM
5p-167 (VHH) VHH: QVQLVESGGGLVQAGGSLRLLCVASGSIDSINAMGWFRQAPGKQRELVASISNMHTTMYAESVKGRFTISRDNAKNTADLQMNSLKPEDTAIYFCNLRQRCSYNGCDEYWGQGTQVTVSS	< 10 nM	> 8000 nM
5p-78 (VHH) VHH: HVQLVESGGGLVQAGGSLRLSCAAAARFSTSAMGWFRQAPGKEREFVAAVSWSNTNIHYADTVKGRFTISADTAKETVYLQMNSLKPDDTAVYYCAQGGWGLTQPIIVDYWGKGTQVTVSS	< 10 nM	< 10 nM
5p-126 (VHH) VHH: QVQLVESGGGLVQAGGSLRLSCAAAARFSTSAMGWFRQAPGKEREFVAAVSWSNTNTHYADTVKGRFTISADTAKETVYLQMNSLKPEDTAVYYCAQGGWGLTQPIIVDYWGKGTQVTVSS	< 10 nM	< 10 nM
5p-61 (VHH) VHH: QVQLVESGGGLVQAGGSLRLACAGSGGTFSSYIMAWFHQAPGKEREFIAGISKTGSDTYYADSVKGRFTISRDNAKNTVYLQMNSLKPEDTAVYYCAARRGPLITTSRLHYDFWGQGTQVTVSS	< 10 nM	10 to 100 nM
5p-99 (VHH) VHH: HVQLVESGGGSVQPGGSLRLSCAASGLTLDHYAVGWFRQAPGKEREGVSCISSSTGSAYYADSVKGRFTISRDNAKNMMYLEMNSLKPEDTAVYYCATDLLRRMLPGSSWWCLNQNDFGSWGQGTQVTVSS	< 10 nM	1000 to 8000 nM
5p-68 (VHH) VHH: QVQLVESGGGLVQAGGSLRLSCVASGRTFSTSHMGWFRQAPGKEREFVAVISRSGSSTLDADSVKGRFTISRDNAKNTVYLQMNSLKPEDTAVYYCAGSRTAGLTSNRFLYDSWGQGTQVTVSS	< 10 nM	10 to 100 nM
5p-82 (VHH) VHH: HVQLVESGGGLVQAGESLRLSCVDSKRTGSRWPMGWFRQAPGKEREFVASISWTGSRTYYADSVKGRFTISRDNAENTVFLQMNSLKPEDTAVYYCAAAHARVYGANWSSSNRNDYDAWGQGTQVTVSS	10 to 100 nM	10 to 100 nM
5p-89 (VHH) VHH: EVQLVESGGGLVQAGGSLRLSCEDSKRTGSRWPVGWFRQAPGKEREFVASISWTGSRTYYADSVKGRFTISRDNAENTVFLKMNSLKPEDTAVYYCAAAQTRVYGANWSSSNRDDYDAWGQGTQVTVSS	10 to 100 nM	10 to 100 nM
4P-46 (VHH) VHH: HVQLVESGGGLVQAGGSLRLSCAASRIFSTSAMGWFRQAPGKEREFVAAISWSGTNTHYADSVKGRFAISTDNAKNTVYLQMNSLKPEDTAVYYCAQGGWGISQPIEVDYWGKGTQVTVSS	< 10 nM	10 to 100 nM
5p-125 (VHH) VHH: HVQLVESGGGLVQAGDSLRLSCAASRIFSTSAMGWFRQAPGKEREFVAAISWSGTNTHYADPVKGRFAISTDNAKNTVYLQMNSLKPEDTAVYYCAQGGWGLRQPIEVDYWGKGTQVTVSS	< 10 nM	10 to 100 nM
5p-127 (VHH) VHH: EVQLVESGGGLVQAGGSLRLSCAASRIFSTSAMGWFRQAPGKEREFVAAISWSGTDTHYANSVKGRFAISTDAAKNTVYLQMNSLEPEDTAVYYCAQGGWGVRQPVEVDYWGKGTQVTVSS	< 10 nM	< 10 nM
5p-124 (VHH) VHH: HVQLVESGGGLVQAGDSLRLSCAASRIFSTSAMGWFRQAPGKEREFVAAISWSGGNVHYLDSVKGRFAISADNSKSTVFLQMNSLKPEDTAVYYCAQGGWGIRQVIEVDYWGKGTQVTVSS	< 10 nM	< 10 nM
4P-47 (VHH) VHH: HVQLVESGGGLVQAGGSLRLSCAADARFSTSAMGWFRQAPGKEREFVAAISWSGANTHYADTVKGRFTISTDTAKNTVYLQMNSLKPEDTAVYYCAQGGWGITQPISVDYWGKGTQVTVSS	< 10 nM	< 10 nM
5p-37 (VHH) VHH: QVQLVESGGGLVQAGGSLRLSCAASRIFSTSAMGWFRQAPGKEREFVAAISWSGTNTHYTDPVKGRFAISTDNAKSTVYLQMNSLKPEDTAVYYCAQGGWGIRQPIEVDYWGKGTQVTVSS	< 10 nM	10 to 100 nM
5p-128 (VHH) VHH: HVQLVESGGGLVQAGGSLRLSCAASRIFSTSAMGWFRQAPGKERQFVAGTDWSGTNIHYADSVKGRFAISTDNAKNTVYLQMNSLKPEDTAVYYCAQGGWGVSQPIEVDYWGKGTQVTVSS	< 10 nM	10 to 100 nM
5p-26 (VHH) VHH: DVQLVESGGGLVQAGGSLRLSCAASGRTLRSYNMGWFRQPPGKEREFVAALSWTGLGTYYADSVKGRFTISRDITKNTLYLQMDSLQPEDTANYYCAADSTLDRLHSAESDYRYWGQGTQVTVSS	< 10 nM	> 8000 nM
5p-74 (VHH) VHH: DVQLVESGGGLVQAGGSLRLSCAASGGTSRRYTMGWFRQAPGKEREFVSAISNTGATISGANSMEGRFTISRDNAKNTVYLQMNSLKPEDTAVYYCAATSRGWSIGMTYDYWGQGTQVTVSS	< 10 nM	< 10 nM
